Key:
[1] = target: T1, rLIN28B (LIN28B-Myc-His) (Homo sapiens, UniProt Q6ZN17 1-250); experiment: AlphaScreen saturation binding; apparent Kd; n = 3, SD; REMSA: 20 mM HEPES pH 7.5, 50 mM KCl, 0.5 ug BSA, 0.25% glycerol, room temperature, 1 h; AlphaScreen: dialysis buffer (Table S3, partly shown: 0.02% Tween, 0.1% BSA, 15% glycerol, pH 7.5?), room temperature, 90 min; conditions: protein: recombinant; tags: C-terminal Myc-His; label: 5'-biotin
T1 sequence: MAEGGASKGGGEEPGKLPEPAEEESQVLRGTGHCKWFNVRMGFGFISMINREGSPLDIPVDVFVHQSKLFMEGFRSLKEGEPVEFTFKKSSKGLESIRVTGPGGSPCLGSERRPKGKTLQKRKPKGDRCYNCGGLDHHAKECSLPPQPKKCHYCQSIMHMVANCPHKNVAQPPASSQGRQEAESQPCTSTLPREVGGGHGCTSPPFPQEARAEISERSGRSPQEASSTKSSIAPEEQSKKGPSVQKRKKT

[2] = target: T1, rLIN28B (LIN28B-Myc-His); experiment: AlphaScreen; REMSA: 20 mM HEPES pH 7.5, 50 mM KCl, 0.5 ug BSA, 0.25% glycerol, room temperature, 1 h; AlphaScreen: dialysis buffer (Table S3, partly shown: 0.02% Tween, 0.1% BSA, 15% glycerol, pH 7.5?), room temperature, 90 min; conditions: protein: recombinant; tags: C-terminal Myc-His; label: 5'-biotin

GCUAUGAUACCACCCGGUACAGGAGC (structured_RNA) [Bi-pre-let-7g] gave a Kd [1] of 34.7 ± 3.6 nM.

GGCAUGAUACCACCCGGUACGGGC (structured_RNA) [Bi-pre-let-7g-mut]: no binding [2].

From paper PMC11084668, “EGCG Disrupts the LIN28B/Let-7 Interaction and Reduces Neuroblastoma Aggressiveness”
